IntAct's records for PubMed 29106382

B1: Angiopoietin-1 (Homo sapiens), Q15389 (parent)
chain: MTVFLSFAFLAAILTHIGCSNQRRSPENSGRRYNRIQHGQCAYTFILPEHDGNCRESTTDQYNTNALQRDAPHVEPDFSSQKLQHLEHVMENYTQWLQKLENYIVENMKSEMAQIQQNAVQNHTATMLEIGTSLLSQTAEQTRKLTDVETQVLNQTSRLEIQLLENSLSTYKLEKQLLQQTNEILKIHEKNSLLEHKILEMEGKHKEELDTLKEEKENLQGLVTRQTYIIQELEKQLNRATTNNSVLQKQQLELMDTVHNLVNLCTKEGVLLKGGKREEEKPFRDCADVYQAGFNKSGIYTIYINNMPEPKKVFCNMDVNGGGWTVIQHREDGSLDFQRGWKEYKMGFGNPSGEYWLGNEFIFAITSQRQYMLRIELMDWEGNRAYSQYDRFHIGNEKQNYRLYLKGHTGTAGKQSSLILHGADFSTKDADNDNCMCKCALMLTGGWWFDACGPSNLNGMFYTAGQNHGKLNGIKWHYFKGPSYSLRSTTMMIRPLDF

Variants of: B1
Conditions: with tie2_human TEK

Row | Variant | effect of a mutation on the interaction
1 | K249R | with no effect
